Results published in PMC3335814, “Structure of an Enzyme-Derived Phosphoprotein Recognition Domain” (PLoS ONE, 2012).

T1: Dlg SH3-GK ΔHook (residues 598-975 without 679-766), as it stands in the fusion (Drosophila, UniProt P31007-5 598-975, Δ679-766)
T1 construct: Existed only joined to m11 on one chain; written apart for the pair seen in the crystal structure; also called Dlg GK^dom and its adjacent SH3 domain; GK^dom; source: E. coli BL21(DE3), purified (NiNTA, anion exchange, size exclusion), as part of the fusion m8
T1 sequence (looked up): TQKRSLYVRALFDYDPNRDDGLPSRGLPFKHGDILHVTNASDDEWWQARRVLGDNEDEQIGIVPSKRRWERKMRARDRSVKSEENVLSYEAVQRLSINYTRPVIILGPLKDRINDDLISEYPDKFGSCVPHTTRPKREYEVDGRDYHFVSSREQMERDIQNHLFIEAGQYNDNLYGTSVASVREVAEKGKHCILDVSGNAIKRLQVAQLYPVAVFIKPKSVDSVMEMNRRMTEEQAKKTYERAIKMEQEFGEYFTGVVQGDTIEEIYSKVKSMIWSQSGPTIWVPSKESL


Legend:
[1] = target: Pins Linker peptide (residues 427-445), unphosphorylated, TMR-labelled (Drosophila) (UniProt Q9VB22); assay: fluorescence polarisation; steady state anisotropy of 0.5 µM TMR-labelled Pins peptide (427-445) with increasing concentrations of Dlg constructs; 20 mM Tris pH 8, 100 mM NaCl, 1 mM DTT; nonlinear regression
[2] = target: Pins Linker peptide (residues 427-445), pSer436, TMR-labelled (Drosophila) (UniProt Q9VB22); assay: as above
[3] = target: Pins Linker peptide (residues 427-445), pSer436, TMR-labelled (UniProt Q9VB22); assay: fluorescence polarisation; conditions: read from the fitted curve at 20 µM Dlg-GK; parent: est. 0.11; read off a plot
[4] = target: T1, Dlg SH3-GK ΔHook (residues 598-975 …); assay: crystal structure; Dlg SH3-GK ΔHook and Pins Linker S436D joined on one chain; vapor diffusion, 2 M NaCl, 0.1 M NaOAc pH 4.6; data to 1.6 Å; one molecule in the asymmetric unit; conditions: both partners purified

| Kd [2] [nM] | response [3] | Molecule | also measured |
| --- | --- | --- | --- |
| 800 | – | Dlg GK domain (isolated GK^dom) (domain or fragment) | Kd [1]: > 200000 nM |
| – | 0.083 | Dlg GK domain (isolated GK^dom) R822A | – |
| 14000 | – | ΔHook/Pins^S436D fusion protein (Dlg 598-975 without 679-766, fused to Pins 411-460 S436D) (from UniProt P31007-5 598-975; Q9VB22 411-460) | – |

The next lines start with the molecule.

| Molecule | Kd [2] [nM] | response [3] | also measured |
| --- | --- | --- | --- |
| Dlg GK domain (isolated GK^dom) Y824A | – | 0.11 | – |
| Dlg GK domain (isolated GK^dom) Y831A | – | 0.017 | – |
| Dlg GK domain (isolated GK^dom) Y855A | – | 0.08 | – |
| Dlg SH3-GK module (domain or fragment) | 300 | – | – |
| Dlg SH3GK fused to Pins Linker without the phosphomimetic (from UniProt P31007-5 598-975; Q9VB22 411-460) | 300 | – | – |
| DHSASGNQSDGSENSQGRMVRVRRQDMEQLDLIKITPDGKRMQEEKLRAQ (domain or fragment, Drosophila, UniProt Q9VB22 411-460, looked up, Partner of Inscuteable (Pins), Linker, residues 411-460, phosphomimetic S436D; Existed only joined to m10 on one chain; written apart for the pair seen in the crystal structure; also called Pins^LINKER S436D; Pins^S436D; source: E. coli BL21(DE3), purified (NiNTA, anion exchange, size exclusion), as part of the fusion m8) [Pins Linker (residues 411-460) S436D, as it stands in the fusion] | – | – | binding result [4]: binds |
